Experimental data published in patent US8173598B2, “Myeloid protein activation of anti-inflammatory and anti-hypoxic pathway” (The Board of Trustees of the University of Illinois, priority 2008, dated 2012).

What was measured:
wound bacterial load = format: in vivo, SKH-1 mice
Experimental: (§1) The restraint stress protocol is based on established procedures (Gajendrareddy et al., 2005; Mercado et al., 2002; Padgett et al., 1998). Restraint was initiated 3 days before wounding. Restraint stress (RST) in this model consists of confinement of mice within loosely fitting, well-ventilated 50 ml conical tubes for a period of 12-14 hours during their active nocturnal cycle. Animals were subjected to restraint for an additional five cycles on the day of wounding and for four days thereafter, then stress was discontinued.
(§2) For treatment of wounds, S100A8 and mutant ala^42S100A8 were produced, cleaved and purified from a GST fusion construct as previously described (Tugizov et al., 2005) (Sroussi et al., 2006). The endotoxin levels in the recombinant protein preparations were below 1 ng/μg of proteins as measured by the Limulus amoebocyte lysate assay (LAL) (Associates of Cape Cod, Falmouth, Mass.). Solutions of S100 proteins at a concentration of 1 μg/ml were used for those experiments. Introduction of S100A8 protein or control saline vehicle were conducted through local injection intradermally of 25 μl solution in the tissue surrounding the wounds with the help of Micro-Fine IV syringes 28G1/2 (Becton Dickinson, Franklin Lakes, N.J.). Careful wound manipulation ensured no direct disruption of the wound site. An additional 10 μl solution was applied directly to the wounds.
Wound biopsies were performed to evaluate bacterial clearance. Mice were anesthetized as described above. The dorsal area was cleaned with Betadine and a uniform, full-thickness wound located on the dorsum just below the shoulder blades was created with a sterile 6.0-mm punch (Miltex Instrument Company).
Wound infection was assessed with measurement of bacterial load at the wound site by methods adapted from Rojas (Rojas et al., 2002). At day 1 and day 5 post-wounding, mice were euthanized; wounds were collected with a 6-mm punch (see above) and homogenized in 1 ml of sterile PBS. Homogenates were serially diluted (1:10); plated in duplicate on BHI agar, and incubated for 15 h. Bacterial colonies were counted.

[1] = test system: excisional cutaneous wounds; assay: Wound closure in the SKH-1 restraint stress model; format: in vivo, SKH-1 mice
Source text: This protocol was approved by the Committee on Animal Research at the University of Illinois at Chicago. Virus antibody-free, female SKH-1 mice, 5-6 weeks of age, were purchased from Charles River, Inc (Wilmington, Mass.). The animals were allowed to acclimate to the animal facility for at least one week prior to experimental procedures.
as §1
For excisional wounds, mice were anesthetized with a single 0.25 ml intraperitoneal injection of Ketaset solution (Aveco, Fort Dodge, Iowa) at a concentration of 7.8 mg/ml, plus Rompum (Haver-Lockhart, Shawnee, Kans.) at 0.44 mg/ml. Each animal received two standardized circular cutaneous wounds with 3.5 mm punch (Miltex Instrument Company), placed just behind the shoulder blades with a biopsy punch.
as §2
Measurement of Wound Sizes was done as follows. Beginning on the day of wounding (day 0), each animal's wounds were photographed daily until day 5 post-wounding. Photographs of the wound were obtained with a standard-sized dot placed next to the site. Digitized photographs were analyzed using photoplanimetry (Marucha et al., 1998). An investigator blinded to treatment group and day of photograph measured wound size. Wound size was expressed as the percentage of the wound area determined on every post-wounding day, compared with the original wound area.

[2] = test system: recruitment of neutrophils; conditions: rat air-pouch; Sroussi et al., 2006; cited from earlier work
neutrophils = conditions: conditions that inhibit wild type S100A8; cited from earlier work

B1: ala^42S100A8: oxidation-resistant analog of S100A8 engineered using site-directed mutagenesis (cysteine 42 replaced with alanine) (protein, UniProt P05109 1-93, looked up, variant C42A)
Protein S100-A8: MLTELEKALNSIIDVYHKYSLIKGNFHAVYRDDLKKLLETEAPQYIRKKGADVWFKELDINTDGAVNFQEFLILVIKMGVAAHKKSHEESHKE
In the case of B1, the “wound bacterial loads, stressed mice, day 1” value (wound bacterial load; RST mice, day 1, vs saline treated stressed mice) is reported as “statistically significant reduction in bacterial loads”, the “wound bacterial loads, stressed mice, day 5” value (wound bacterial load; RST mice, day 5, vs saline treated stressed mice) is reported as “statistically significant reduction in bacterial loads” and the “wound bacterial counts, FWD mice, day 1” value (wound bacterial load; mouse, in vivo) is reported as “statistically significant increase in wound bacterial counts”. The “wound bacterial counts, FWD mice, day 5” value (wound bacterial load; mouse, in vivo) was “bacterial counts had reverted to control values”, the “wound closure in non-stressed animals with daily treatment” value ([1]; FWD mice, daily treatment, vs daily saline) was “significant delay in wound closure starting at day 4 post-wounding” and the “wound closure rates in non-stressed control animals” value ([1]; FWD mice, single application) was “normal wound closure rates”. For the same molecule, the “wound closure rates with daily injections” value ([1]; daily administration to the wounds) was “did not result in the amelioration of wound closure rates”, the “wound closure rate in stressed animals” value ([1]; restraint stressed (RST) mice, single local treatment immediately after wounding) was “closure rate similar to the closure rates observed in the non stressed food and water deprived (FWD) group” and the “average wound size in stressed animals vs saline” value ([1]; restraint stressed (RST) mice, single local treatment immediately after wounding, from day 2 on) was “significantly smaller than the average wound size in stressed animals treated with saline”. For the same molecule, the “recruitment of neutrophils stimulated by bacterial endotoxins” value [2] was “inhibits the recruitment of neutrophils stimulated by bacterial endotoxins” and the “chemo-repulsive activity under oxidative conditions” value (neutrophils) was “retains its chemo-repulsive activity under oxidative conditions”.
